Source: patent publication US6878520 (MERCK, dated 2005)

B1: full-length human ART protein (ligand)
chain: AQMGLAPMEGIRRPDQALLPELPGLGLRAPLKKTNAEQAEEDLLQEAQALAEVLDLQDREPRSSRRCVRLHESCLGQQVPCCDPCATCYCRFFNAFCYCRKLGTAMNPCSRTLVPRGSGSELGTKLGPEQKLISEEDLNSAVDHHHHHH
notes: also called full length ART; full-length ART protein
B2: c-ART-b (ligand)
chain: AQMGLALQDREPRSSRRCVRLHESCLGQQVPCCDPCATCYCRFFNAFCYCRKLGTAMNPCSRTLVPRGSGSELGTKLGPEQKLISEEDLNSAVDHHHHHH
notes: Secreted into the culture medium of transfected COS-7 cells and used as concentrated medium; also called ART polypeptide

Key:
[1] = molecular target: T1, human melanocortin-3 receptor (human, UniProt P41968 1-323); test: inhibition of 125I-NDP-α-MSH binding to membranes of cells expressing human MC3R
T1 construct: whole, on cells; Assayed as membranes prepared from stably expressing cells; also called hMC3R; MC3R
Description: (§1) Binding assays were done in the same manner as described in Fong et al., 1997, Biochem. Biophys. Res. Comm. 237:629–631. Binding assays were carried out using membranes prepared from L cells or CHO cells stably expressing human MC3R, MC4R or MC5R. […] The above mixture in binding buffer (50 mM Tris, 2 mM CaCl_2, 1 mM MgCl_2, 5 mM KCl, pH 7.2) was incubated at room temperature for 2 hours, followed by filtration through GFC paper. The bound ligand was quantitated in a γ counter. IC$50$ values were calculated as previously described (Fong et al., 1996, Mol. Pharmacol. 50:1605–1611).

[2] = molecular target: T2, human melanocortin-4 receptor (human, UniProt P32245 1-332); test: inhibition of 125I-NDP-α-MSH binding to membranes of cells expressing human MC4R
T2 construct: whole, on cells; Assayed as membranes prepared from stably expressing cells; also called hMC4R; MC4R
Description: as §1

T2 sequence (P32245 whole entry): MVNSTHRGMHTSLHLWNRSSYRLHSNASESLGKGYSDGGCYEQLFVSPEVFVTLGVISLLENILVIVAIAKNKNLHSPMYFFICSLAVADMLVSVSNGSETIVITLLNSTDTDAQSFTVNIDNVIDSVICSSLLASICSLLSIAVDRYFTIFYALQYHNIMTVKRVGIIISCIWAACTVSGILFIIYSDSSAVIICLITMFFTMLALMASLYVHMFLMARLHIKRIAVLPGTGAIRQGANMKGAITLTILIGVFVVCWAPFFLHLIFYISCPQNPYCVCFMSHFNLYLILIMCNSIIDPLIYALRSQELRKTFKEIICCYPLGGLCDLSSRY
T1 sequence (P41968 whole entry): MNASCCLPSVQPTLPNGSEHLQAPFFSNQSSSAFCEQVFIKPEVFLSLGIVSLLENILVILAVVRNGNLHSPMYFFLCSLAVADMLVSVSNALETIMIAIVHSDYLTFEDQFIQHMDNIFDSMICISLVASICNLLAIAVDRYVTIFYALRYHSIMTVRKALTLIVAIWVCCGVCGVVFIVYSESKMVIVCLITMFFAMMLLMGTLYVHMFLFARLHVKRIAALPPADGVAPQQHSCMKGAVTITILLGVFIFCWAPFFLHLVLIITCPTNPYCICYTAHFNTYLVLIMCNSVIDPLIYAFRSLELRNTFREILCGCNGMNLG

| Binder | IC50 [1] | IC50 [2] |
| --- | --- | --- |
| B1 | 1 nM | 0.5 nM |
| B2 | 1.9 nM | 1.4 nM |
